Experimental data from IntAct's records for PubMed 11297558.

B1: Adhesion G protein-coupled receptor E2 (Homo sapiens), Q9UHX3 (parent)
chain: MGGRVFLVFLAFCVWLTLPGAETQDSRGCARWCPQDSSCVNATACRCNPGFSSFSEIITTPMETCDDINECATLSKVSCGKFSDCWNTEGSYDCVCSPGYEPVSGAKTFKNESENTCQDVDECQQNPRLCKSYGTCVNTLGSYTCQCLPGFKLKPEDPKLCTDVNECTSGQNPCHSSTHCLNNVGSYQCRCRPGWQPIPGSPNGPNNTVCEDVDECSSGQHQCDSSTVCFNTVGSYSCRCRPGWKPRHGIPNNQKDTVCEDMTFSTWTPPPGVHSQTLSRFFDKVQDLGRDYKPGLANNTIQSILQALDELLEAPGDLETLPRLQQHCVASHLLDGLEDVLRGLSKNLSNGLLNFSYPAGTELSLEVQKQVDRSVTLRQNQAVMQLDWNQAQKSGDPGPSVVGLVSIPGMGKLLAEAPLVLEPEKQMLLHETHQGLLQDGSPILLSDVISAFLSNNDTQNLSSPVTFTFSHRSVIPRQKVLCVFWEHGQNGCGHWATTGCSTIGTRDTSTICRCTHLSSFAVLMAHYDVQEEDPVLTVITYMGLSVSLLCLLLAALTFLLCKAIQNTSTSLHLQLSLCLFLAHLLFLVAIDQTGHKVLCSIIAGTLHYLYLATLTWMLLEALYLFLTARNLTVVNYSSINRFMKKLMFPVGYGVPAVTVAISAASRPHLYGTPSRCWLQPEKGFIWGFLGPVCAIFSVNLVLFLVTLWILKNRLSSLNSEVSTLRNTRMLAFKATAQLFILGCTWCLGILQVGPAARVMAYLFTIINSLQGVFIFLVYCLLSQQVREQYGKWSKGIRKLKTESEMHTLSSSAKADTSKPSTVN
B2: Adhesion G protein-coupled receptor E5 (Homo sapiens), P48960 (parent)
chain: MGGRVFLAFCVWLTLPGAETQDSRGCARWCPQNSSCVNATACRCNPGFSSFSEIITTPTETCDDINECATPSKVSCGKFSDCWNTEGSYDCVCSPGYEPVSGAKTFKNESENTCQDVDECQQNPRLCKSYGTCVNTLGSYTCQCLPGFKFIPEDPKVCTDVNECTSGQNPCHSSTHCLNNVGSYQCRCRPGWQPIPGSPNGPNNTVCEDVDECSSGQHQCDSSTVCFNTVGSYSCRCRPGWKPRHGIPNNQKDTVCEDMTFSTWTPPPGVHSQTLSRFFDKVQDLGRDSKTSSAEVTIQNVIKLVDELMEAPGDVEALAPPVRHLIATQLLSNLEDIMRILAKSLPKGPFTYISPSNTELTLMIQERGDKNVTMGQSSARMKLNWAVAAGAEDPGPAVAGILSIQNMTTLLANASLNLHSKKQAELEEIYESSIRGVQLRRLSAVNSIFLSHNNTKELNSPILFAFSHLESSDGEAGRDPPAKDVMPGPRQELLCAFWKSDSDRGGHWATEGCQVLGSKNGSTTCQCSHLSSFAILMAHYDVEDWKLTLITRVGLALSLFCLLLCILTFLLVRPIQGSRTTIHLHLCICLFVGSTIFLAGIENEGGQVGLRCRLVAGLLHYCFLAAFCWMSLEGLELYFLVVRVFQGQGLSTRWLCLIGYGVPLLIVGVSAAIYSKGYGRPRYCWLDFEQGFLWSFLGPVTFIILCNAVIFVTTVWKLTQKFSEINPDMKKLKKARALTITAIAQLFLLGCTWVFGLFIFDDRSLVLTYVFTILNCLQGAFLYLLHCLLNKKVREEYRKWACLVAGGSKYSEFTSTTSGTGHNQTRALRASESGI

Variants of: B1
Conditions: with daf_human CD55, P08174
daf_human CD55, P08174, sequence (P08174 whole entry): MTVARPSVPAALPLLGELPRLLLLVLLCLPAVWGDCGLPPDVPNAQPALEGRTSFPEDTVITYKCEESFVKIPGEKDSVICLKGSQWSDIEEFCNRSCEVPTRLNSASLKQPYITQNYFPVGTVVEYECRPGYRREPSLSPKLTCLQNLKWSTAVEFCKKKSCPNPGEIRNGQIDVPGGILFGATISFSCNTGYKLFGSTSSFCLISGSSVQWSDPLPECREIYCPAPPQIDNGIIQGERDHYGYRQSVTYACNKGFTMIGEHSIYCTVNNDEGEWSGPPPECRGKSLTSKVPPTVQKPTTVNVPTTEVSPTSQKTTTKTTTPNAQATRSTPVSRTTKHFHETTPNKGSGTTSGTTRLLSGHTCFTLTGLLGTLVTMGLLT

Variant | effect of a mutation on the interaction
M62T | causing an interaction
D36N | causing an interaction
L74P | causing an interaction

Variants of: B2
Conditions: with daf_human CD55, P08174

Variant | effect of a mutation on the interaction
N33D | decreasing interaction strength
T59M | decreasing interaction strength
P71L | decreasing interaction strength
